Publication PMC11472046

Assays:
[1] = molecular target: H3K9 methylated (H3K9me) histones in chromatin (S. pombe (endogenous in S. pombe cells)); experiment: live-cell single-molecule time-lapse imaging; residence times of stationary PAmCherry-tagged molecules in living WT S. pombe; 200-ms integration time with different dark delay times; kdiss from a linear fit that separates photobleaching
[2] = molecular target: H3K9 methylated (H3K9me) histones in chromatin (S. pombe (endogenous in S. pombe cells)); experiment: as above; remark: listed apart in the source
[3] = molecular target: H3K9me3 mononucleosome; experiment: native gel or EMSA; varying concentrations of Chp2 with 50 nM mononucleosomes; 20 mM HEPES pH 7.5, 4 mM Tris, 80 mM KCl, 0.1% Igepal CA-630, 0.2 mM EDTA, 2 mM DTT, 10% glycerol; 4°C, 30 min; unbound nucleosome band quantified; apparent affinity (K1/2)
[4] = molecular target: H3K9 methylated (H3K9me) histones in chromatin (S. pombe (endogenous in S. pombe cells)); experiment: live-cell single-molecule tracking (NOBIAS mobility states, Bayesian Synthetic Likelihood rate inference); PAmCherry-tagged protein photoactivated and tracked in the nucleus of living S. pombe, 40-ms frames, room temperature; Chp2 from the nmt81 promoter, Epe1 from its own or the nmt1 promoter; WT cells, with clr4Δ and swi6Δ cells as comparison
[5] = molecular target: H3K9 methylated (H3K9me) histones in chromatin (S. pombe (endogenous in S. pombe cells)); experiment: live-cell single-molecule time-lapse imaging; as a4, but PAmCherry-Chp2-low in swi6Δ cells
[6] = molecular target: H3K9 methylated (H3K9me) histones in chromatin (S. pombe (endogenous in S. pombe cells)); experiment: live-cell single-molecule tracking (NOBIAS mobility states, Bayesian Synthetic Likelihood rate inference); as a2, but PAmCherry-Chp2 expressed from the nmt41 promoter (5x higher level)

PAmCherry-Swi6, sequence (P40381 whole entry): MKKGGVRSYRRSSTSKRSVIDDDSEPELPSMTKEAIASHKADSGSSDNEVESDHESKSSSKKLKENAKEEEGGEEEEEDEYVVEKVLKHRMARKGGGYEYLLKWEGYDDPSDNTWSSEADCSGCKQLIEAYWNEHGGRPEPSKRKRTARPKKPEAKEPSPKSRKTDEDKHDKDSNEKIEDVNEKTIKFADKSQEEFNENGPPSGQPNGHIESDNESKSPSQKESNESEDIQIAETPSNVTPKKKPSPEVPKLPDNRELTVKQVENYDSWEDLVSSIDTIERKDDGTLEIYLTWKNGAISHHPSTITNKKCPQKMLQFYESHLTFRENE
PAmCherry-Chp2, sequence (O42934 whole entry): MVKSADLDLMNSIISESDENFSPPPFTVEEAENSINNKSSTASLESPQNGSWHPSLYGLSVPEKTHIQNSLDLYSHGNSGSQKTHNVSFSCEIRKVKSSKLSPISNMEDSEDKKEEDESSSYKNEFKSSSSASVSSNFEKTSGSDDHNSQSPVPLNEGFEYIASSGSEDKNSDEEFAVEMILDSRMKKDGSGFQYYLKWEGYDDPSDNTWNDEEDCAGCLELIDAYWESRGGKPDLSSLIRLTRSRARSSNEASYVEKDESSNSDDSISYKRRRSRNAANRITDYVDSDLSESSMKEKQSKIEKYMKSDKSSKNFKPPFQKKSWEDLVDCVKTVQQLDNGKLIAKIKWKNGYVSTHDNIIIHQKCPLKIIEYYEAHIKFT
Chp2-WT (recombinant), sequence (O42934 whole entry): as above

| Substance | average dwell time [1] | koff [1] | weight fraction of the low mobility (H3K9me-bound) state [4] | further results |
| --- | --- | --- | --- | --- |
| PAmCherry-Swi6 (from UniProt P40381 1-328) (natural protein) | 2.2 s | 0.454 s⁻¹ | – | average dwell time [2]: 2.22 s |
| Chp2-WT (recombinant) (from UniProt O42934 1-380) (natural protein) | – | – | – | specificity for H3K9me over H3K9me0 nucleosomes [3]: 2 fold |
| PAmCherry-Chp2 W199A (from UniProt O42934 1-380) (natural protein) | – | – | 10% | – |
| PAmCherry-Chp2 (from UniProt O42934 1-380) (natural protein) | 3.85 s | 0.26 s⁻¹ | > 92% | average dwell time [5]: 3.72 s; koff [5]: 0.269 s⁻¹; weight fraction of the low mobility (H3K9me-bound) state [6]: > 90%; koff [4]: 0.479 s⁻¹ |
